In general, Kd refers to a measure of binding affinity in units of concentration.

This passage reports Kd results from patent publication US20240141045A1.

In the test the target is PD-1 Fc fusion protein (UniProt Q15116). Description: SPR (Biacore 3000), recombinant PD-1 Fc immobilised on CM5 chip, fusion protein injected.
PD-1 Fc fusion protein, sequence (Q15116 25-167 limits assumed): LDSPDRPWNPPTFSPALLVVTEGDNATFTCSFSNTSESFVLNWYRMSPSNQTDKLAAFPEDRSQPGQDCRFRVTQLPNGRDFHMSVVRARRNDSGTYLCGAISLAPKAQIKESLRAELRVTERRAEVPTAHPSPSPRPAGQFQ

B1: Anti-PD1 (VH7-VL6) scFv-Fc-ADA2 (Fc fusion, part only; not given: scFv linker and Fc, not shown: a dimerising Fc or GST)
scFv (part 1 of 2), part: QVQLVQSGVEVKKPGASVKVSCKASGYTFTNYYMYWVRQAPGQGLEWMGGINPSNGGTNFNEKFKNRVTLTTDSSTTTAYMELKSLQFDDTAVYYCARRDYRFDMGFDYWGQGTTVTVSSEIVLTQSPATLSLSPGERATLSCRASKGVSTSGYSYLHWYQQKPGQAPRLLIYLASYLESGVPARFSGSGSGTDFTLTISSLEPEDFAVYYCQHSRDLPLTFGGGTKVEIK
scFv (part 2 of 2), part: GGGGSGGGGSIDETRAHLLLKEKMMRLGGRLVLNTKEELANERLMTLKIAEMKEAMRTLIFPPSMHFFQAKHLIERSQVFNILRMMPKGAALHLHDIGIVTMDWLVRNVTYRPHCHICFTPRGIMQFRFAHPTPRPSEKCSKWILLEDYRKRVQNVTEFDDSLLRNFTLVTQHPEVIYTNQNVVWSKFETIFFTISGLIHYAPVFRDYVFRSMQEFYEDNVLYMEIRARLLPVYELSGEHHDEEWSVKTYQEVAQKFVETHPEFIGIKIIYSDHRSKDVAVIAESIRMAMGLRIKFPTVVAGFDLVGHEDTGHSLHDYKEALMIPAKDGVKLPYFFHAGETDWQGTSIDRNILDALMLNTTRIGHGFALSKHPAVRTYSWKKDIPIEVCPISNQVLKLVSDLRNHPVATLMATGHPMVISSDDPAMFGAKGLSYDFYEVFMGIGGMKADLRTLKQLAMNSIKYSTLLESEKNTFMEIWKKRWDKFIADVATK
For the molecule B1, the Kd is 0.563 nM.
